T1: b-48A chimera (catalytic module of T. fusca exoglucanase Cel48A ligated with a dockerin from the Bacteroides …)
T1 construct: Recombinant chimera; all enzyme constructs were designed to contain a His-tag; also called variant Cel48A
T1 chain: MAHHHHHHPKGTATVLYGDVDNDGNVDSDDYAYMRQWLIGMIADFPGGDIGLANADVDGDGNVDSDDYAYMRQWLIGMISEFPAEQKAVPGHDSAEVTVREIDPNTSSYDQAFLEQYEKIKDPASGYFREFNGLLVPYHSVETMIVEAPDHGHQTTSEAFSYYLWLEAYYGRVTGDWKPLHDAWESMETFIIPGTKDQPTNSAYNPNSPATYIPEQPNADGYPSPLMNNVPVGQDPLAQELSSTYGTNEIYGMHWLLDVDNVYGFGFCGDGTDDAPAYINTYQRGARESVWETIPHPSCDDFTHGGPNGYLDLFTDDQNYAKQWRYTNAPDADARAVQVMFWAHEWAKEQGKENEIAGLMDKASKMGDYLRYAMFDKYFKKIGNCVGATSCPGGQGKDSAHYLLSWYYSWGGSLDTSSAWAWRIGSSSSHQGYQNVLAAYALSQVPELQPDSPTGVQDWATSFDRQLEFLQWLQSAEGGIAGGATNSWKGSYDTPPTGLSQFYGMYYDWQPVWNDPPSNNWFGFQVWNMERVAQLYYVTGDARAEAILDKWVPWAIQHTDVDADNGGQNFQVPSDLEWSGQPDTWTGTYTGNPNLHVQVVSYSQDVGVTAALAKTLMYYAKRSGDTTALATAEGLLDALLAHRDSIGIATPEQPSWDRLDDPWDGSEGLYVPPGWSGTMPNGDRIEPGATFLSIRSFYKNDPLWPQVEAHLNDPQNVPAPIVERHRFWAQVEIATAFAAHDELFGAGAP

T2: f-5A chimera (catalytic module of T. fusca family-5 endoglucanase Cel5A fused to a dockerin from Ruminococcus …)
T2 construct: Recombinant chimera expressed in E. coli; all enzyme constructs were designed to contain a His-tag; also called variant Cel5A
T2 chain: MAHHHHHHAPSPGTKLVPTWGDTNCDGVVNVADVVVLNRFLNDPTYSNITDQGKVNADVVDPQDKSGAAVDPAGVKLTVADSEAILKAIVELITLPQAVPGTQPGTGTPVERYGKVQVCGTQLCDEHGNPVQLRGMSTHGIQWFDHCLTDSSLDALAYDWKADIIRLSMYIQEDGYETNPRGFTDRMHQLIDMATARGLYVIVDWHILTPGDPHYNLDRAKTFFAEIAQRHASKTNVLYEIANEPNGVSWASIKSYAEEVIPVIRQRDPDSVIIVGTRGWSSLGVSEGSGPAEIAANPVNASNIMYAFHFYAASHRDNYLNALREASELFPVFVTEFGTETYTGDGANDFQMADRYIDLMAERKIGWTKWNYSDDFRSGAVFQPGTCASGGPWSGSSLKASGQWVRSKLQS

T3: Scaf-T single-cohesin scaffoldin (CBM with C. thermocellum cohesin) (Acetivibrio thermocellus (strain ATCC …, UniProt Q06851 361-706))
T3 construct: Individual single-cohesin scaffoldin; also called pScaf.T
T3 sequence: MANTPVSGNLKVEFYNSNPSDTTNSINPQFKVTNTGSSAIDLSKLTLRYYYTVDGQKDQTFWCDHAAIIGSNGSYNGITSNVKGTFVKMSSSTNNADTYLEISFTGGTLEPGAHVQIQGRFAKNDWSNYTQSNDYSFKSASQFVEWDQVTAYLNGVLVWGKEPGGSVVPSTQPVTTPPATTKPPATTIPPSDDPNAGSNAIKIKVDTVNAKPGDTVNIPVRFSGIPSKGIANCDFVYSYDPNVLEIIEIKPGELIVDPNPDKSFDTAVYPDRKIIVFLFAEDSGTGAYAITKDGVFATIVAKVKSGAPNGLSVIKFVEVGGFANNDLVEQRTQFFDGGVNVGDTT

B1: Scaf AT chimeric scaffoldin (A. cellulolyticus cohesin 3, cellulose-binding CBM, cohesin 3 from the C. thermocellum CipA scaffoldin) (other)
chain: MDLQVDIGSTSGKAGSVVSVPITFTNVPKSGIYALSFRTNFDPQKVTVASIDAGSLIENASDFTTYYNNENGFASMTFEAPVDRARIIDSDGVFATINFKVSDSAKVGELYNITTNSAYTSFYYSGTDEIKNVVYNDGKIEVIASVPTNTPTNTPANTPVSGNLKVEFYNSNPSDTTNSINPQFKVTNTGSSAIDLSKLTLRYYYTVDGQKDQTFWCDHAAIIGSNGSYNGITSNVKGTFVKMSSSTNNADTYLEISFTGGTLEPGAHVQIQGRFAKNDWSNYTQSNDYSFKSASQFVEWDQVTAYLNGVLVWGKEPGGSVVPSTQPVTTPPATTKPPATTIPPSDDPNAIKIKVDTVNAKPGDTVNIPVRFSGIPSKGIANCDFVYSYDPNVLEIIEIKPGELIVDPNPDKSFDTAVYPDRKIIVFLFAEDSGTGAYAITKDGVFATIVAKVKSGAPNGLSVIKFVEVGGFANNDLVEQRTQFFDGGVNVGDIHHHHHH
B2: Scaf-BF chimeric scaffoldin (cohesin from B. cellulosolvens ScaB, CBM3a from C. thermocellum, cohesin 1 from R. flavefaciens scaffoldin B) (other)
chain: MAGKSSPGNKMKIQIGDVKANQGDTVIVPITFNEVPVMGVNNCNFTLAYDKNIMEFISADAGDIVTLPMANYSYNMPSDGLVKFLYNDQAQGAMSIKEDGTFANVKFKIKQSAAFGKYSVGIKAIGSISALSNSKLIPIESIFKDGSITVTKVPTNTPTNTPANTPVSGNLKVEFYNSNPSDTTNSINPQFKVTNTGSSAIDLSKLTLRYYYTVDGQKDQTFWCDHAAIIGSNGSYNGITSNVKGTFVKMSSSTNNADTYLEISFTGGTLEPGAHVQIQGRFAKNDWSNYTQSNDYSFKSASQFVEWDQVTAYLNGVLVWGKEPGGSVVPSTQPVTTPPATTKPPATTIPPSEDPAGGLSAVQPNVSLGEVLDVSANRTAADGTVEWLIPTVTAAPGQTVTMPVVVKSSSLAVAGAQFKIQAATGVSYSSKTDGDAYGSGIVYNNSKYAFGQGAGRGIVAADDSVVLTLAYTVPADCAEGTYDVKWSDAFVSDTDGQNITSKVTLTDGAIIVHHHHHH
B3: 10B-t chimera (catalytic module of T. fusca Xyn10B attached directly to dockerin S of Cel48S from Clostridium thermocellum) (enzyme)
chain: MASHHHHHHGPVHDHHPAPHSNAKSERLRWAAPDGFYIGSAVAGGGHHLEQDYPDPFTHDGKYRSILAQQFSSVSPENQMKWEYIHPEPDRYDFAMADKIVDFAERNDQKVRGHTLLWHSQNPEWLEEGDYSPEELREILRDHITTVVGRYAGRIHQWDVANEIFDEQGNLRTQENIWIRELGPGIIADAFRWAHEADPNAELFFNDYNVEGINPKSDAYYELIQELLDDGVPVHGFSVQGHLSTRYGFPGDLEQNLRRFDELGLATAITELDVRMDLPASGKPTPKQLEQQADYYQQALEACLAVEGCDSFTIWGFTDKYSWVPVFFPDEGAATIMTEKYERKPAFFALQQTLREARCADSPKPGPGKPKPGKGPKHDHCTSTYKVPGTPSTKLYGDVNDDGKVNSTDAVALKRYVLRSGISINTDNADLNEDGRVNSTDLGILKRYILKEIDTLPYKN
notes: Recombinant chimera expressed in E. coli, purified on a Ni column (His-tag); also called variant Xyn10B
B4: Scaf-B single-cohesin scaffoldin (CBM with B. cellulosolvens cohesin) (other)
chain: MANTPVSGNLKVEFYNSNPSDTTNSINPQFKVTNTGSSAIDLSKLTLRYYYTVDGQKDQTFWCDHAAIIGSNGSYNGITSNVKGTFVKMSSSTNNADTYLEISFTGGTLEPGAHVQIQGRFAKNDWSNYTQSNDYSFKSASQFVEWDQVTAYLNGVLVWGKEPGGSVVPSTQPVTTPPATTKPPATTIPPSDDPNAGSGKSSPGNKMKIQIGDVKANQGDTVIVPITFNEVPVMGVNNCNFTLAYDKNIMEFISADAGDIVTLPMANYSYNMPSDGLVKFLYNDQAQGAMSIKEDGTFANVKFKIKQSAAFGKYSVGIKAIGSISALSNSKLIPIESIFKDGSITVTN
notes: Individual single-cohesin scaffoldin
B5: Scaf-A single-cohesin scaffoldin (CBM with A. cellulolyticus cohesin) (other)
chain: MANTPVSGNLKVEFYNSNPSDTTNSINPQFKVTNTGSSAIDLSKLTLRYYYTVDGQKDQTFWCDHAAIIGSNGSYNGITSNVKGTFVKMSSSTNNADTYLEISFTGGTLEPGAHVQIQGRFAKNDWSNYTQSNDYSFKSASQFVEWDQVTAYLNGVLVWGKEPGGSVVPSTQPVTTPPATTKPPATTIPPSDDPNAGSDLQVDIGSTSGKAGSVVSVPITFTNVPKSGIYALSFRTNFDPQKVTVASIDAGSLIENASDFTTYYNNENGFASMTFEAPVDRARIIDSDGVFATINFKVSDSAKVGELYNITTNSAYTSFYYSGTDEIKNVVYNDGKIEVIAS
notes: Individual single-cohesin scaffoldin; also called pScaf-A
B6: Scaf-ATF chimeric scaffoldin (cohesins A, T and F with the cellulose-binding CBM) (other)
chain: MDLQVDIGSTSGKAGSVVSVPITFTNVPKSGIYALSFRTNFDPQKVTVASIDAGSLIENASDFTTYYNNENGFASMTFEAPVDRARIIDSDGVFATINFKVSDSAKVGELYNITTNSAYTSFYYSGTDEIKNVVYNDGKIEVIASVPTNTPTNTPANTPVSGNLKVEFYNSNPSDTTNSINPQFKVTNTGSSAIDLSKLTLRYYYTVDGQKDQTFWCDHAAIIGSNGSYNGITSNVKGTFVKMSSSTNNADTYLEISFTGGTLEPGAHVQIQGRFAKNDWSNYTQSNDYSFKSASQFVEWDQVTAYLNGVLVWGKEPGGSVVPSTQPVTTPPATTKPPATTIPPSDDPNAIKIKVDTVNAKPGDTVNIPVRFSGIPSKGIANCDFVYSYDPNVLEIIEIKPGELIVDPNPDKSFDTAVYPDRKIIVFLFAEDSGTGAYAITKDGVFATIVAKVKSGAPNGLSVIKFVEVGGFANNDLVEQRTQFFDGGVNVGDIGSAGGLSAVQPNVSLGEVLDVSANRTAADGTVEWLIPTVTAAPGQTVTMPVVVKSSSLAVAGAQFKIQAATGVSYSSKTDGDAYGSGIVYNNSKYAFGQGAGRGIVAADDSVVLTLAYTVPADCAEGTYDVKWSDAFVSDTDGQNITSKVTLTDGAIIVHHHHHH

What was measured:
[1] = molecular target: T4, 11A-XBM-a chimera (catalytic module of T. fusca Xyn11A together with its adjacent XBM attached to dockerin B …); assay: affinity-based ELISA; complex formation also by non-denaturing PAGE
T4 construct: Recombinant chimera expressed in E. coli, purified on a Ni column (His-tag); also called variant Xyn11A

[2] = molecular target: T5, 11A-a chimera (catalytic module of T. fusca Xyn11A attached directly to dockerin B from Acetivibrio …); assay: as above
T5 construct: Recombinant chimera expressed in E. coli, purified on a Ni column (His-tag)

[3] = molecular target: B3; assay: as above
[4] = molecular target: T1, b-48A chimera (catalytic module of T. …); assay: as above
[5] = molecular target: T2, f-5A chimera (catalytic module of T. …); assay: as above
[6] = molecular target: T3, Scaf-T single-cohesin scaffoldin (CBM …); assay: affinity-based ELISA
[7] = molecular target: T1, b-48A chimera (catalytic module of T. …); assay: affinity-based ELISA
[8] = molecular target: T4, 11A-XBM-a chimera (catalytic module of …); assay: affinity-based ELISA
[9] = molecular target: T5, 11A-a chimera (catalytic module of T. …); assay: affinity-based ELISA

Row | Binder | binding result [1] | binding result [2] | binding result [3] | binding result [5] | further results
1 | B1 | binds | binds | binds | – | –
2 | B2 | – | – | – | binds | binding result [4]: binds
3 | B3 | – | – | – | – | binding result [6]: binds
4 | B4 | – | – | – | – | binding result [7]: binds
5 | B5 | – | – | – | – | binding result [8]: binds; binding result [9]: binds
6 | B6 | binds | binds | binds | binds | –
